Consider 50 sequences from the domain aggregation screens of Martell et al. (2025).

A short description of this data set: soluble fraction after stress (log2 fold change); higher = more stays soluble; pooled small domains, quantitative proteomics. The following applies: stress: 50 degC. In outline:
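Pooled custom libraries of small protein domains were measured in a high-throughput format, with quantitative proteomics as the read-out. Each library was stressed at 50°C. Aggregation propensity is given as the base-two logarithm of the fold change in how much of each protein stays soluble after the stress. Higher values mean a larger share of the protein remains in solution.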

For the sequence “HMGPLSDRSVADWLLRLGLADTANNRLLLQVMHAAGLPLERTAVRAMRETAAGRPEGTDAREWLQAAAAAQ”, the “soluble fraction (log2)” value was -0.208.

Consider “HMDVALEALDESDGAVRLQFSGALQTYLNDSTTAASLEAISKTFRAFYEAAGRPVDTLEVYAAGEPVT”, for which the “soluble fraction (log2)” value was 0.06.

As to “HMTEKPTREAHILDQLARDGGVLVAALSRELGVSEVTIRSDLRDLEAAGLLQRTHGGAQASSFQTVL”, the “soluble fraction (log2)” value was -0.0142.

With “HMAFDDAHYKDMITSYLKKFKKGNRSEIENLIIPKLSEVLVEKQKKDKVKNLLQALRKDNQIRLKGKYWYL”, the “soluble fraction (log2)” value worked out at 0.135.

For “HMSESAGKAFDLLFYLAKAGETVSLARLSRETGMNKATALRYLNVLESKGVVERSKLGWTLGLSLFELGSK”, the “soluble fraction (log2)” value is -2.05.

For “HMADQIIEGILGKEGGYVNNPNDKGGPTRWGITQTTARAYGYSGDMKALPRDTAKAIYLSQYWT”, the “soluble fraction (log2)” value is -0.183.

In the case of “HMTRDAQLAALERLMDDPSPVVRKAVLKGVQAAGTEGLLWLQQLSKNQTLGPYALALLTELR”, the “soluble fraction (log2)” value is -0.412.

With “HMSQISKLWRPSEDVTEILTRSGMDSEFLEGLIPEFIIYWSERADVLVSYNSKFIEHARLKWAQHSAEIKT”, the “soluble fraction (log2)” value was -2.63.

For “HMSLREKNKARTRTAILNAARDLAKQGQWDAITTRQIADAAGVSYQTLYNYYPSKASILVEMLL”, the “soluble fraction (log2)” value was -1.45.

“HMGNSRNDQDLQTQIIKILAEGPASSRTLIETLTIEDEAALLKTLKRLLMNKKISLTPSNLYKL”: the “soluble fraction (log2)” value is -0.487.

“HMKHSLNHLGLWLLPELSRRDIQLREFAHLLGTTSQGLSDLLRGQRFSSHTLAQWQLRFQEKLDEIDQAS”: the “soluble fraction (log2)” value is -1.11.

Consider “HMEAFDYLGRRTRDLLERQGWTTVPLVRDAYLAVPGGERLLQVPGFGRKSLREVRRWLWLQIGDPRFE”, for which the “soluble fraction (log2)” value was -1.36.

For “HMSPAVEDYLEQIHNLIAQKGYARVVDIAGNLKISQASVTNMIQRMDADGLVVYERYRGVVLTETGRK”, the “soluble fraction (log2)” value is -1.3.

As to “HMGQLSDREALTVLAREALVELPRAAGDYRNGRTAALQSLVGRVMRKTAGRGNPALLQEIFRSLL”, the “soluble fraction (log2)” value is -0.436.

On to “HMEDPAVYYKILQIPPDASLSEIHRAFEKITSAWDPERYPHISSWKETSAKKLQEIRNAYEKLLILRETG”, for which the “soluble fraction (log2)” value was -0.0409.

For “HMRMTTEQLMSFLKQHFPQVADNFTVRISDEGRLSVEMPVNDKHLRPGGTVSGPSMFALADVAFYLAILQ”, the “soluble fraction (log2)” value was -1.16.

On to “HMTIGKRIKRRRIELKMSIDSLARTIGKDRSTVYRYESGAIDKVSSDVLAKLATALNTTPAYLIGL”, for which the “soluble fraction (log2)” value was -3.27.

With “HMIFSIIPGQIRLTKMEIADGYLVLYGFTPSKEIYNLHLNPALKSIFTSSETSFIPVSGGLKFMSTNKL”, the “soluble fraction (log2)” value is -1.78.

Take “HMISFLNFVRKEIDASQLKDSTKQNHLTTIGLLQSFKPSIEFKDLNYNFITSFEKYLYDAGYQM”: the “soluble fraction (log2)” value stood at 0.133.

For the sequence “HMNQPRQRKVIFELIDERNALERVLMHFAHLEKQVEKIDERKYQVTLYYDKEDETEILIRVLSFG”, the “soluble fraction (log2)” value is -1.15.

As to “HMANTLDPMDLKQIISLHLDGFSNRKIGATLGISRNTVNTYMRLFSVSDYALKELLTLDNATLDKLFPS”, the “soluble fraction (log2)” value is -2.01.

In the case of “HMTKKSLFNQYLDDQKRLDIVTLQKAELVDLHKLADELNIDQYNQLKKNELIFKILQSNPSE”, the “soluble fraction (log2)” value was -0.135.

On to “HMDRDQNVEEGQRSLKSEMGRFGLLIANMDDLAERVNYGNAEDMYAAIGAGDLRLMQVVHAAEEMLG”, for which the “soluble fraction (log2)” value is 0.127.

Regarding “HMHFDQILAHAMDERGMNAVQLASLTGLSSGAISRYLAGDRQPTVYSIQQIAKALGVSADYLVG”, the “soluble fraction (log2)” value was -0.884.

In the case of “HMRDFTQPQTASIGPRMREALARGTMTVEELREQFRTQEFPHESVRTAFLEELERVAAELGLA”, the “soluble fraction (log2)” value was -0.0676.

“HMFDTVKIGKRIAELRKKRDMTQFELADRLGISYQAVSNWERGNSMPDIAKLPELAEIFGVTVDEILG”: the “soluble fraction (log2)” value came to 0.161.

Take “HMTNVIPKAMAPFNGSTIIADGIKNIKDHIDNLYITVGYKGATLSEHVINKGVSAVFNTTGKGNAWWVYN”: the “soluble fraction (log2)” value stood at 0.0606.

With “HMFTLDIGTIIRNRRLELNLTLEEIGNAVGVSKSTVQKWENGFISNMKRDKISALAKVLNINPVTLITGEY”, the “soluble fraction (log2)” value was -1.12.

With “HMLGNIERALEMLQEVAATMDPVDIRLLLSMAQVESVRGNTEAAVKLIDEALVIDPGNERIEQIRLRVL”, the “soluble fraction (log2)” value is -0.558.

As for “HMLPAGSDAILRYLSSGAVKGIGVATAARIVEKFGDETLRILEEEPGRLAEIKGITAAKAKAIGEAFAGQ”, the “soluble fraction (log2)” value was -0.168.

On to “HMAPVVAILTRQLPLPQAQQLAGQTALVRVVKGGPGNEAELEFAGQNIQVKLPPGRQLTAGEMVTVAFALS”, for which the “soluble fraction (log2)” value was found to be 0.0876.

In the case of “HMAISEEEATNLALERVPGASAQDLRIQLEFDDGVQKYEGDIIYDGKEYDFEIDANTGTFLEWSE”, the “soluble fraction (log2)” value was -0.151.

In the case of “HMKKKSYIVSFATDEDAQRFAREGFEVISLSGRQITVSLKGEMMPLVKALGSYQVVGLETVA”, the “soluble fraction (log2)” value was -0.19.

With “HMGTSFEDIDRAVKSVRKPETDEAEKLHAGKTFKDIAETELFQKLTESFAGISDRVNEVIDLYTARAAE”, the “soluble fraction (log2)” value was 0.143.

Consider “HMQSLIVPVPKPEDDPVYKDGIKQDPVEVVSIWLGRDYLNMILNLKVSTGKGHTFGIVEDVS”, for which the “soluble fraction (log2)” value was 0.0321.

With “HMHGTIHSAAYGGDIEAVKKFLAAGADVNANGGGRTPLDLAIQVKNTEIADLLRKHGGKTGDELKA”, the “soluble fraction (log2)” value is 0.0271.

Take “HMTFNLDVDGDDQVTALGDGLMIIRKLFGATFAGDALTNKAISPDATRTTDEIHAYIEKGITSGVLD”: the “soluble fraction (log2)” value was -0.268.

For “HMSDLFKYSPYKTLTEEQYKITYQIIERLKTDLSNGIPRISIIDGGAGTGKSILGIFLLKLLVDAQN”, the “soluble fraction (log2)” value came out at 0.343.

In the case of “HMQQEPNFYIVDGNTNQIVDRYYAPDSNVAHQYLGQWRQQHDPQETGNYRYGRLSSETEERYRNLAA”, the “soluble fraction (log2)” value stood at 0.236.

For “HMGEAIPVPDLKHKALTDAEHLVHELGLEIQVVDTGYVKSLPADYILGQSLAPGEKVKSGHIIYVTINSP”, the “soluble fraction (log2)” value is -0.0167.

Take “HMGPPAVGSKLQDARKAQQLSLDELSKRAGVSKSMLSEVERNQANPTVGVLWRLATALGISLTDLLG”: the “soluble fraction (log2)” value was -0.374.

On to “HMNPETLTNGSVVKMSKANLSDELIIDMINNSPARFDLSSGALRSLEGEGVSKAVIESMKRATSG”, for which the “soluble fraction (log2)” value was 0.191.

In the case of “HMTHEAEDLNALRMMVRDPIFSSDEPDLQQLRGAVAHAPQFVDRFKELYNDYQRLAEFVQNSL”, the “soluble fraction (log2)” value was -0.769.

Consider “HMETAESLLRRLIMLEDPAMQNAMYVLAVMLERGKQLVERAAKPHESGGILRVYEHKKSGDTFVVLDPR”, for which the “soluble fraction (log2)” value is -0.511.

On to “HMENLRLSELTVERGHRLAGRTLADIASAPNSPKYLIVLIQRGQETVIPTGSTVILPGDVLILAQS”, for which the “soluble fraction (log2)” value was -0.605.

With “HMNSNLSLTSYEEKIFFLLEKEKNLDELILESSFKAGEILSILMDLEIKHAIVSIPGGKYRRK”, the “soluble fraction (log2)” value was -2.84.

On to “HMQNPYDTLGVSRDSTDAEIKKAYRKLAMEHHPDKGGDSQRFAEINNAYDNIKDMSSRQNFENDPSNFQ”, for which the “soluble fraction (log2)” value stood at 0.288.

As for “HMRSFADEGTVEEWIKQAIRENEAAVADYRKGKETAVKFLMGQVMRLSKGEANPADLEDKIKAKLD”, the “soluble fraction (log2)” value is 0.0903.

In the case of “HMRPNREKDMADLEKLAPFLLQMLTNYAQMTGDEKPLNAFITRFGYAAQIRDIQDFFMGPWHPA”, the “soluble fraction (log2)” value is no less than 0.62.

Consider “HMDTSAHEVLSAIRSIIEDEDKRHPLSDEAITSRLSQQGYDIARRTVAKYRERLGLPVARLRRE”, for which the “soluble fraction (log2)” value was -0.0213.
